Measured values taken from patent US20240294590A1.

Key:
[1] = biological target: Histidine tagged PSMGFR peptide (MUC1* extra cellular domain peptide); assay: SPR, Biacore 3000, His-tagged PSMGFR peptide on NTA-Ni SAM chip
[2] = biological target: Histidine tagged PSMGFR peptide (MUC1* extra cellular domain peptide); assay: SPR, Biacore 3000, His-tagged PSMGFR peptide on NTA-Ni SAM chip; hexamer signal divided by 3

Chain of Histidine tagged PSMGFR peptide (MUC1* extra cellular domain peptide) (peptide, as listed by the source): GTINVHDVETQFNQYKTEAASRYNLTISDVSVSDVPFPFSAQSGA

amount of binding (RUs) [1]: 100 RU
fold less bound than NM23-S120G-dimer [2]: 12 fold
Substance: NM23-S120G-hexamer (non-refolded soluble-fraction preparation of NM23-H1 S120G) (from UniProt P15531 1-152) (ligand)
